B1: Pistol ribozyme (parent)
chain: GGGUCGUUGUUCCAUAAUCGCGUGGAUAUGGCACGCAAGUUUCUACCGGGCACCGUAAAUGUCCGACUGGAGCCGUUCGGGCGGCUAUAAACAGACCUCAGGCCCGAAGCGUGGCGGCACCUGCCGCCGGUGGUAAAAAAGAUCGGAAGAGCACACGUCU

Variants of: B1
Experiment: aptazyme ON/OFF ratio, guanine; higher = stronger switching; co-transcriptional cleavage with and without guanine

| Variant | aptazyme ON/OFF ratio |
| --- | --- |
| GGGUCGCUCUUCAAUAAUCGCGUGGAUAUGGCACGCAAGUUUCUACCGGGCACCGUAAAUGUCCGACUGGAGCCGUUCGGGCGGCUAUAAACAGACCUCAGGCCCGAAGCGUGGCGGCACCUGCCGCCGGUGGUAAAAAAGAUCGGAAGAGCACACGUCU | 1.03 |
| GGGUCGCUCUUCGAUAAUCGCGUGGAUAUGGCACGCAAGUUUCUACCGGGCACCGUAAAUGUCCGACUGGAGCCGUUCGGGCGGCUAUAAACAGACCUCAGGCCCGAAGCGUGGCGGCACCUGCCGCCGGUGGUAAAAAAGAUCGGAAGAGCACACGUCU | 1.05 |
| GGGUCGCUCUUCUAUAAUCGCGUGGAUAUGGCACGCAAGUUUCUACCGGGCACCGUAAAUGUCCGACUGGAGCCGUUCGGGCGGCUAUAAACAGACCUCAGGCCCGAAGCGUGGCGGCACCUGCCGCCGGUGGUAAAAAAGAUCGGAAGAGCACACGUCU | 1.01 |
| GGGUCGCUCUUAGAUAAUCGCGUGGAUAUGGCACGCAAGUUUCUACCGGGCACCGUAAAUGUCCGACUGGAGCCGUUCGGGCGGCUAUAAACAGACCUCAGGCCCGAAGCGUGGCGGCACCUGCCGCCGGUGGUAAAAAAGAUCGGAAGAGCACACGUCU | 1.07 |
| GGGUCGCUCUUAAAUAAUCGCGUGGAUAUGGCACGCAAGUUUCUACCGGGCACCGUAAAUGUCCGACUGGAGCCGUUCGGGCGGCUAUAAACAGACCUCAGGCCCGAAGCGUGGCGGCACCUGCCGCCGGUGGUAAAAAAGAUCGGAAGAGCACACGUCU | 1.05 |
| GGGUCGCUCUUAUAUAAUCGCGUGGAUAUGGCACGCAAGUUUCUACCGGGCACCGUAAAUGUCCGACUGGAGCCGUUCGGGCGGCUAUAAACAGACCUCAGGCCCGAAGCGUGGCGGCACCUGCCGCCGGUGGUAAAAAAGAUCGGAAGAGCACACGUCU | 1.02 |
| GGGUCGCUCAUGGAUAAUCGCGUGGAUAUGGCACGCAAGUUUCUACCGGGCACCGUAAAUGUCCGACUGGAGCCGUUCGGGCGGCUAUAAACAGACCUCAGGCCCGAAGCGUGGCGGCACCUGCCGCCGGUGGUAAAAAAGAUCGGAAGAGCACACGUCU | 1.11 |
| GGGUCGCUCAUGUAUAAUCGCGUGGAUAUGGCACGCAAGUUUCUACCGGGCACCGUAAAUGUCCGACUGGAGCCGUUCGGGCGGCUAUAAACAGACCUCAGGCCCGAAGCGUGGCGGCACCUGCCGCCGGUGGUAAAAAAGAUCGGAAGAGCACACGUCU | 1.12 |
| GGGUCGCUCAUGAAUAAUCGCGUGGAUAUGGCACGCAAGUUUCUACCGGGCACCGUAAAUGUCCGACUGGAGCCGUUCGGGCGGCUAUAAACAGACCUCAGGCCCGAAGCGUGGCGGCACCUGCCGCCGGUGGUAAAAAAGAUCGGAAGAGCACACGUCU | 1.07 |
| GGGUCGCUAUGUUAUAAUCGCGUGGAUAUGGCACGCAAGUUUCUACCGGGCACCGUAAAUGUCCGACUGGAGCCGUUCGGGCGGCUAUAAACAGACCUCAGGCCCGAAGCGUGGCGGCACCUGCCGCCGGUGGUAAAAAAGAUCGGAAGAGCACACGUCU | 1.45 |
| GGGUCGCUAUGUGAUAAUCGCGUGGAUAUGGCACGCAAGUUUCUACCGGGCACCGUAAAUGUCCGACUGGAGCCGUUCGGGCGGCUAUAAACAGACCUCAGGCCCGAAGCGUGGCGGCACCUGCCGCCGGUGGUAAAAAAGAUCGGAAGAGCACACGUCU | 1.23 |
| GGGUCGCUAUGCAAUAAUCGCGUGGAUAUGGCACGCAAGUUUCUACCGGGCACCGUAAAUGUCCGACUGGAGCCGUUCGGGCGGCUAUAAACAGACCUCAGGCCCGAAGCGUGGCGGCACCUGCCGCCGGUGGUAAAAAAGAUCGGAAGAGCACACGUCU | 1.46 |
| GGGUCGCUAUGCUAUAAUCGCGUGGAUAUGGCACGCAAGUUUCUACCGGGCACCGUAAAUGUCCGACUGGAGCCGUUCGGGCGGCUAUAAACAGACCUCAGGCCCGAAGCGUGGCGGCACCUGCCGCCGGUGGUAAAAAAGAUCGGAAGAGCACACGUCU | 1.11 |
| GGGUCGCUAUGCGAUAAUCGCGUGGAUAUGGCACGCAAGUUUCUACCGGGCACCGUAAAUGUCCGACUGGAGCCGUUCGGGCGGCUAUAAACAGACCUCAGGCCCGAAGCGUGGCGGCACCUGCCGCCGGUGGUAAAAAAGAUCGGAAGAGCACACGUCU | 1.07 |
| GGGUCGCUCAUCGAUAAUCGCGUGGAUAUGGCACGCAAGUUUCUACCGGGCACCGUAAAUGUCCGACUGGAGCCGUUCGGGCGGCUAUAAACAGACCUCAGGCCCGAAGCGUGGCGGCACCUGCCGCCGGUGGUAAAAAAGAUCGGAAGAGCACACGUCU | 1.05 |
| GGGUCGCUCAUCAAUAAUCGCGUGGAUAUGGCACGCAAGUUUCUACCGGGCACCGUAAAUGUCCGACUGGAGCCGUUCGGGCGGCUAUAAACAGACCUCAGGCCCGAAGCGUGGCGGCACCUGCCGCCGGUGGUAAAAAAGAUCGGAAGAGCACACGUCU | 1.04 |
| GGGUCGCUCAUAUAUAAUCGCGUGGAUAUGGCACGCAAGUUUCUACCGGGCACCGUAAAUGUCCGACUGGAGCCGUUCGGGCGGCUAUAAACAGACCUCAGGCCCGAAGCGUGGCGGCACCUGCCGCCGGUGGUAAAAAAGAUCGGAAGAGCACACGUCU | 1.09 |
| GGGUCGCUCAUAAAUAAUCGCGUGGAUAUGGCACGCAAGUUUCUACCGGGCACCGUAAAUGUCCGACUGGAGCCGUUCGGGCGGCUAUAAACAGACCUCAGGCCCGAAGCGUGGCGGCACCUGCCGCCGGUGGUAAAAAAGAUCGGAAGAGCACACGUCU | 1.09 |

| Variant | aptazyme ON/OFF ratio |
| --- | --- |
| GGGUCGCUCAUAGAUAAUCGCGUGGAUAUGGCACGCAAGUUUCUACCGGGCACCGUAAAUGUCCGACUGGAGCCGUUCGGGCGGCUAUAAACAGACCUCAGGCCCGAAGCGUGGCGGCACCUGCCGCCGGUGGUAAAAAAGAUCGGAAGAGCACACGUCU | 1.09 |
| GGGUCGCUCUUGCAUAAUCGCGUGGAUAUGGCACGCAAGUUUCUACCGGGCACCGUAAAUGUCCGACUGGAGCCGUUCGGGCGGCUAUAAACAGACCUCAGGCCCGAAGCGUGGCGGCACCUGCCGCCGGUGGUAAAAAAGAUCGGAAGAGCACACGUCU | 1.04 |
| GGGUCGCUCUUUCAUAAUCGCGUGGAUAUGGCACGCAAGUUUCUACCGGGCACCGUAAAUGUCCGACUGGAGCCGUUCGGGCGGCUAUAAACAGACCUCAGGCCCGAAGCGUGGCGGCACCUGCCGCCGGUGGUAAAAAAGAUCGGAAGAGCACACGUCU | 1.03 |
| GGGUCGCUCUUACAUAAUCGCGUGGAUAUGGCACGCAAGUUUCUACCGGGCACCGUAAAUGUCCGACUGGAGCCGUUCGGGCGGCUAUAAACAGACCUCAGGCCCGAAGCGUGGCGGCACCUGCCGCCGGUGGUAAAAAAGAUCGGAAGAGCACACGUCU | 1.03 |
| GGGUCGCUCAUUAAUAAUCGCGUGGAUAUGGCACGCAAGUUUCUACCGGGCACCGUAAAUGUCCGACUGGAGCCGUUCGGGCGGCUAUAAACAGACCUCAGGCCCGAAGCGUGGCGGCACCUGCCGCCGGUGGUAAAAAAGAUCGGAAGAGCACACGUCU | 1.08 |
| GGGUCGCUCAUUGAUAAUCGCGUGGAUAUGGCACGCAAGUUUCUACCGGGCACCGUAAAUGUCCGACUGGAGCCGUUCGGGCGGCUAUAAACAGACCUCAGGCCCGAAGCGUGGCGGCACCUGCCGCCGGUGGUAAAAAAGAUCGGAAGAGCACACGUCU | 1.07 |
| GGGUCGCUCAUUUAUAAUCGCGUGGAUAUGGCACGCAAGUUUCUACCGGGCACCGUAAAUGUCCGACUGGAGCCGUUCGGGCGGCUAUAAACAGACCUCAGGCCCGAAGCGUGGCGGCACCUGCCGCCGGUGGUAAAAAAGAUCGGAAGAGCACACGUCU | 1.04 |
| GGGUCGCUCAUCCAUAAUCGCGUGGAUAUGGCACGCAAGUUUCUACCGGGCACCGUAAAUGUCCGACUGGAGCCGUUCGGGCGGCUAUAAACAGACCUCAGGCCCGAAGCGUGGCGGCACCUGCCGCCGGUGGUAAAAAAGAUCGGAAGAGCACACGUCU | 1.06 |
| GGGUCGCUCUUUAAUAAUCGCGUGGAUAUGGCACGCAAGUUUCUACCGGGCACCGUAAAUGUCCGACUGGAGCCGUUCGGGCGGCUAUAAACAGACCUCAGGCCCGAAGCGUGGCGGCACCUGCCGCCGGUGGUAAAAAAGAUCGGAAGAGCACACGUCU | 1.01 |
| GGGUCGCUCUUUGAUAAUCGCGUGGAUAUGGCACGCAAGUUUCUACCGGGCACCGUAAAUGUCCGACUGGAGCCGUUCGGGCGGCUAUAAACAGACCUCAGGCCCGAAGCGUGGCGGCACCUGCCGCCGGUGGUAAAAAAGAUCGGAAGAGCACACGUCU | 1.04 |
| GGGUCGCUCUUUUAUAAUCGCGUGGAUAUGGCACGCAAGUUUCUACCGGGCACCGUAAAUGUCCGACUGGAGCCGUUCGGGCGGCUAUAAACAGACCUCAGGCCCGAAGCGUGGCGGCACCUGCCGCCGGUGGUAAAAAAGAUCGGAAGAGCACACGUCU | 1.02 |
| GGGUCGCUCUUCCAUAAUCGCGUGGAUAUGGCACGCAAGUUUCUACCGGGCACCGUAAAUGUCCGACUGGAGCCGUUCGGGCGGCUAUAAACAGACCUCAGGCCCGAAGCGUGGCGGCACCUGCCGCCGGUGGUAAAAAAGAUCGGAAGAGCACACGUCU | 1.03 |
| GGGUCGCUCUUGGAUAAUCGCGUGGAUAUGGCACGCAAGUUUCUACCGGGCACCGUAAAUGUCCGACUGGAGCCGUUCGGGCGGCUAUAAACAGACCUCAGGCCCGAAGCGUGGCGGCACCUGCCGCCGGUGGUAAAAAAGAUCGGAAGAGCACACGUCU | 1.05 |
| GGGUCGCUCUUGUAUAAUCGCGUGGAUAUGGCACGCAAGUUUCUACCGGGCACCGUAAAUGUCCGACUGGAGCCGUUCGGGCGGCUAUAAACAGACCUCAGGCCCGAAGCGUGGCGGCACCUGCCGCCGGUGGUAAAAAAGAUCGGAAGAGCACACGUCU | 1.05 |
| GGGUCGCUCUUGAAUAAUCGCGUGGAUAUGGCACGCAAGUUUCUACCGGGCACCGUAAAUGUCCGACUGGAGCCGUUCGGGCGGCUAUAAACAGACCUCAGGCCCGAAGCGUGGCGGCACCUGCCGCCGGUGGUAAAAAAGAUCGGAAGAGCACACGUCU | 1.04 |
| GGGUCGCUCAUUCAUAAUCGCGUGGAUAUGGCACGCAAGUUUCUACCGGGCACCGUAAAUGUCCGACUGGAGCCGUUCGGGCGGCUAUAAACAGACCUCAGGCCCGAAGCGUGGCGGCACCUGCCGCCGGUGGUAAAAAAGAUCGGAAGAGCACACGUCU | 1.06 |
| GGGUCGCUCAUGCAUAAUCGCGUGGAUAUGGCACGCAAGUUUCUACCGGGCACCGUAAAUGUCCGACUGGAGCCGUUCGGGCGGCUAUAAACAGACCUCAGGCCCGAAGCGUGGCGGCACCUGCCGCCGGUGGUAAAAAAGAUCGGAAGAGCACACGUCU | 1.09 |
| GGGUCGCUCAUACAUAAUCGCGUGGAUAUGGCACGCAAGUUUCUACCGGGCACCGUAAAUGUCCGACUGGAGCCGUUCGGGCGGCUAUAAACAGACCUCAGGCCCGAAGCGUGGCGGCACCUGCCGCCGGUGGUAAAAAAGAUCGGAAGAGCACACGUCU | 1.04 |

From the RNAGym collection of RNA variant scans (doi:10.1021/acssynbio.7b00057)
